# Results as given in patent US8197839B2, “Sustained release delivery system” (Virbac Corporation, priority 2001, dated 2012).
# B1: PST Injection A: daily injection of porcine somatotropin, 5 mg/day, comparator (source A) (protein, UniProt P01248 27-216, looked up)
# Somatotropin: FPAMPLSSLFANAVLRAQHLHQLAADTYKEFERAYIPEGQRYSIQNAQAAFCFSETIPAPTGKDEAQQRSDVELLRFSLLLIQSWLGPVQFLSRVFTNSLVFGTSDRVYEKLKDLEEGIQALMRELEDGSPRAGQILKQTYDKFDTNLRSDDALLKNYGLLSCFKKDLHKAETYLRVMKCRRFVESSCAF
# B2: PST Injection M: daily injection of porcine somatotropin, 5 mg/day, comparator (source M) (protein, UniProt P01248 27-216, looked up)
# Somatotropin: B1 Somatotropin
# Assay: Feed conversion efficiency in pigs after sub-cutaneous implantation of rPST compressed tablets, 0-7 days
# Type: in vivo
# Settings: 0-7 days (Table 6)
# Description: A number of the compressed tablets were implanted via sub-cutaneous injection in pigs.
Molecule,FCR,Feed intake,Weight increase
B1,1.97,16.33 kgs,8.30 kgs
B2,1.78,16.78 kgs,9.43 kgs
